Measured values from the RNAGym collection of RNA variant scans (doi:10.1073/pnas.2313332121).
Variants at the floor of the assay were thinned out.

B1: TPR 5TU (parent)
chain: GGAUCUUCUCGAUCUAACAAAAAAGACAAAUCUGCCACAAAGCUUGAGAGCAUCUUCGGAUGCAGAGGCGGCAGCCUUCGGUGGCGCGAUAGCGCCAACGUUCUCAACUAUGACACGCAAAACGCGUGCUCCGUUGAAUGGAGUUUAUCAUG

Variants of: B1
Assay: polymerase ribozyme fitness, log enrichment relative to wild type (log ratio); higher = more active; in vitro selection for triplet polymerase activity
Method in brief: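 Only genotypes with ≥10 input reads and ≥1 read per output were kept after Illumina sequencing of input and output libraries. These libraries were PCR-built, transcribed mutants of each subunit of a heterodimeric triplet polymerase ribozyme, each put through one triplicate in vitro selection round with frozen incubation at −7 °C, gel excision of extended constructs, streptavidin-bead capture and RT-PCR. Fitness is a logarithmic ratio of genotype enrichment to wild-type enrichment, from inverse-variance-weighted replicate averages, with the logarithm in base 2.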

Row | Variant | polymerase ribozyme fitness (log ratio)
1 | A30U U55A C79U C87U A115C C118G | ≤ -4.2
2 | U31G C99G U102G C108A C125U U127G U145G | ≤ -4.2
3 | C32A G74U C85A A98U | -0.754
4 | A30U G80A G81U C85U U104A C105G | ≤ -4.2
5 | C32G C57A G59A G74A C85U A120G U144C | -2.27
6 | U31G G48C U111G G143A | ≤ -4.2
7 | C32G U53A G86C A91C A120U A121U | ≤ -4.2
8 | U31C G94C | 0.811
9 | U31C A89C C93U U135A | -2.87
10 | C32G C79G C103G C105U A119U G140U | ≤ -4.2
11 | C32A G50A C57A U82A C99A U101A | ≤ -4.2
12 | U31C G81C C85U C99G | -0.592
13 | U31G A40G C54A C93A C103A U109A U134A G136U | ≤ -4.2
14 | U31C G48C G94C A106U | ≤ -4.2
15 | U33C U45A C85G G133U | ≤ -4.2
16 | C32U G126U | -2.43
17 | U33C C105G | -4.2
18 | C32U C51G G70A C76U G83U G84A A98G U135G | ≤ -4.2
19 | U33A A73U C85U U127G | -2.45
20 | C32U G68U C87G C99G | -4.11
21 | A30U G100U | ≤ -4.2

Row | Variant | polymerase ribozyme fitness (log ratio)
22 | U33G C54A C96A A98U | -4.06
23 | C35A A98G | -3.17
24 | C35A U55A | -2.64
25 | G34C U61G A150G | ≤ -4.2
26 | U33C C93A C99G G128U | ≤ -4.2
27 | A30G C79U G140C | ≤ -4.2
28 | U31C C32A C38U U56A G86A A98U | -4.14
29 | A30U C85A C95A C125A U148A | ≤ -4.2
30 | U31A C38G G86A G136A | -1.16
31 | U31C A40C A41C | -0.373
32 | U31G A37C C95U U109G G143U G152C | ≤ -4.2
33 | G34U A47C G67A C79A G84C C95A C123G U135G | ≤ -4.2
34 | U33G U44A C93A C103A C105G G133C | ≤ -4.2
35 | U31A C95G A119U | -1.25
36 | C32U G59U C85U A115G | -3.62
37 | U31A G50A C57U C85U A119C | -1.76
38 | G34U A47G G92U C99U A119C U146A | ≤ -4.2
39 | G34C C93A A106U | ≤ -4.2
40 | C32U U56A G74A | 0.713
41 | U31C U45G G46C G83U G94C A115U A119C A142U A150U | ≤ -4.2
42 | U33G C43A C57A A60C G74A G83A C85G A150U | ≤ -4.2

Row | Variant | polymerase ribozyme fitness (log ratio)
43 | C32A A49U C72A C85A U90G A98G A120C U151A | ≤ -4.2
44 | U31G U33G U61G C72U C87G A106C U135G | ≤ -4.2
45 | U31A A120G | 0.523
46 | U33A A98G G124C | ≤ -4.2
47 | C32G A40C G83C A110U U111C | ≤ -4.2
48 | U33G A98U G124C | -3.27
49 | C35A C54U G94U U135G G140C | ≤ -4.2
50 | A30U U53G G84A | -4.15
51 | C32U U77A A89U C93U A106U | ≤ -4.2
52 | C32G A41C A60U G92U G140C | ≤ -4.2
53 | C32G A47G C72A A73C C96A U127C | ≤ -4.2
54 | C32U G68A G80C C96G A150U | ≤ -4.2
55 | C35A G80C G88A C103U A110G C149A | ≤ -4.2
56 | C35A C57A G83U G94C | ≤ -4.2
57 | C35A A60C A66U A120U U146C A150U | ≤ -4.2
58 | U31G C36U U53A G58C C69U G83U C118A U134A G143C G152U | ≤ -4.2
59 | U31G C38A U45A G83C C95A | ≤ -4.2
60 | A30G A47U U53A C76G C96U C118A | ≤ -4.2
61 | U31C A64G G84A A91U C99A U135C G141C | ≤ -4.2
62 | A30G C38U C54G C72G C75G C96G A147U | ≤ -4.2
63 | U31A C38G G58A | 0.153

Row | Variant | polymerase ribozyme fitness (log ratio)
64 | C32G G48A G67U C85U C93G U145G | ≤ -4.2
65 | C32U C116G | -2.9
66 | C32U C96G U130G | -3.47
67 | U33A A52G C85A C95A U148C U151A | ≤ -4.2
68 | U31C A52U G58A C95G U145A | -3.19
69 | U33G A47U A49G C75A C76U A91U C93G A98U C114A G136C | ≤ -4.2
70 | U31C C51A G74U G84A C87A A113G A115C | ≤ -4.2
71 | C32G G58A C93A G128A | -4.2
72 | U31A A52C U104G U134G | ≤ -4.2
73 | U31C G58C C95G A97G G143A | -2.96
74 | G34A C38A C76G C99G U104A A107U G143A | ≤ -4.2
75 | C32U C54G C85A A119U G126A C149A | ≤ -4.2
76 | U31A C32G C72G A150U | ≤ -4.2
77 | U33A G46U A107G | -4.18
78 | U33G C43G A66G C93A C95U C118G | ≤ -4.2
79 | A30G C38A U56A A107U A121C | ≤ -4.2
80 | A30U U56G G58U A73G C85U C105U G141C | ≤ -4.2
81 | C32U G65A G71C G94U | ≤ -4.2
82 | G34C G83A A91U U102C G112U A113U A142C | ≤ -4.2
83 | U33C C57U U61A G84A U101G G140U U145A | -4
84 | G34C C69G C85G C105A | ≤ -4.2
